US20090280138A1 (OXFORD BIOMEDICA UK, published 2009)

What was measured:
[1] = biological target: T1, MHC class I molecule HLA-B*0702 (iTopia plate-bound monomer) (biotin (bound to streptavidin-coated plate)); assay: iTopia off-rate assay, 37 C; fit R^2 0.04
T1 construct: Commercial iTopia system; also called B7
Experimental: (§1) The 9 mers were tested for Peptide Binding, Off Rate and Affinity using iTopia Epitope Discovery System in accordance with the manufacturer's instructions. Briefly, 96 well microtitre plates coated with MHC molecules representing different MHC alleles are used to identify candidate peptides. […] Determinations are performed in duplicate using an ELISA plate reader and included allele specific positive controls.
(§2) A one-phase exponential decay curve, with a plateau given equal to 0, was generated using GraphPad Prism® software, which calculated the t1/2 and goodness-of-fit, as measured by r², for each peptide.

[2] = biological target: T2, MHC class I molecule HLA-A*0201 (iTopia plate-bound monomer) (biotin (bound to streptavidin-coated plate)); assay: iTopia off-rate assay, 37 C; fit R^2 0.83
T2 construct: also called A2
Experimental: as §1, §2

[3] = biological target: T3, MHC class I molecule HLA-A*0301 (iTopia plate-bound monomer) (biotin (bound to streptavidin-coated plate)); assay: iTopia off-rate assay, 37 C; fit R^2 0.87
T3 construct: also called A3
In short: (§3)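 First, 9-mer peptides were applied to plates coated with MHC alleles. Next, binding was read by ELISA reader in duplicate alongside allele-specific positive controls. Finally, the decay data were fitted (one-phase exponential, plateau 0) to obtain half-life and r².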

[4] = biological target: T2, MHC class I molecule HLA-A*0201 (iTopia …); assay: iTopia off-rate assay, 37 C; fit R^2 0
Experimental: as §1, §2

[5] = biological target: T3, MHC class I molecule HLA-A*0301 (iTopia …); assay: iTopia off-rate assay, 37 C; fit R^2 0.77
In short: as §3

Binder	t½ half life [1]	t½ half life [2]	t½ half life [3]	t½ half life [4]	t½ half life [5]
VLYLNRKGI [5T4 9-mer peptide 187 VLYLNRKGI]	2.9 h	36 min	1.4 h		
LLVLYLNRK (also called Peptide No 186) [5T4 9-mer peptide 186 LLVLYLNRK]				21.4 h	3.2 h
